Numbering of substitutions follows the chain as printed. Names and notes keep the numbering of the source.
T1: EsCas13d, nuclease-dead (Eubacterium siraeum, UniProt B0MS50, R295A;H300A;R849A;H854A)
T1 sequence: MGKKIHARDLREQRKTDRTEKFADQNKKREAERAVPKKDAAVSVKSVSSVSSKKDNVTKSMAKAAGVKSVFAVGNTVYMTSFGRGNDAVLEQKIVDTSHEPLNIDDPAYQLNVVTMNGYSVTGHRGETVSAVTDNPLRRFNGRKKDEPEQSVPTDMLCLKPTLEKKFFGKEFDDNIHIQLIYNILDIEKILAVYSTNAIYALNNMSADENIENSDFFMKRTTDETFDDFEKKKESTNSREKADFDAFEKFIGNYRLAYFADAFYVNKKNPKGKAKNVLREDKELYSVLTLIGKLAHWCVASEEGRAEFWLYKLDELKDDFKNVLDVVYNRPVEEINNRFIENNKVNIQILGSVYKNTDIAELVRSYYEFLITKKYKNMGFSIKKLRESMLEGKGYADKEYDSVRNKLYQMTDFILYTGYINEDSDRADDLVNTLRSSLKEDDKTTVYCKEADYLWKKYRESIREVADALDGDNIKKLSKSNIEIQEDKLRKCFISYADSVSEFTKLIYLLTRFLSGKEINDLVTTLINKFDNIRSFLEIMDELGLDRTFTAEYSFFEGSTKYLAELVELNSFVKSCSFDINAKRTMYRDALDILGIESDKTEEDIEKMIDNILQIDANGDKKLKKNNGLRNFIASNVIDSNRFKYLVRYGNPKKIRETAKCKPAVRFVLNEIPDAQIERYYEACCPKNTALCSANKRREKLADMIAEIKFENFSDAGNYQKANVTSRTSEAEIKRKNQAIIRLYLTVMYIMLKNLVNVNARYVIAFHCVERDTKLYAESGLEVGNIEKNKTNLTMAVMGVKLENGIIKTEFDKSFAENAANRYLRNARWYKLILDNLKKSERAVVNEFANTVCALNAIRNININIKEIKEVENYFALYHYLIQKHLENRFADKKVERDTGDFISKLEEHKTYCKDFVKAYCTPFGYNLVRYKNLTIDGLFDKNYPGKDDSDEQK

B1: target 2 MT 5'PFS GCU 3'PFS CUG (mixed)
RNA 1: CACCCGUGCAAAAUUGCAGGGGUCUAAAACCUUCUCCAAAUUGUUUCAUCCU
RNA 2: GGGAAUGGAUCCACAUCUACGAAUUCGCUAGGAUGAAACAAUUUGGAGAAGCUGAGAUCGGAAGAGCACACGU
B2: target 2 MT 5'PFS AAU 3'PFS AAG (mixed)
RNA 1: B1 RNA 1
RNA 2: B1 RNA 2 with G27A, C28A, C52A, U53A
B3: target 1 U3A,C7G (mixed)
RNA 1: CACCCGUGCAAAAAUGCAGGGGUCUAAAACUGAGCGGAUAACCUCUCUAUGG
RNA 2: GGGAAUGGAUCCACAUCUACGAAUUCGUACCAUAGAGAGGUUAUGCGCACACCGAGAUCGGAAGAGCACACGU
B4: target 2 MT 5'PFS AAU 3'PFS AAA (mixed)
RNA 1: B1 RNA 1
RNA 2: B1 RNA 2 with G27A, C28A, C52A, U53A, G54A
B5: target 2 MT 5'PFS AAU 3'PFS AAC (mixed)
RNA 1: B1 RNA 1
RNA 2: B1 RNA 2 with G27A, C28A, C52A, U53A, G54C
B6: target 2 MT 5'PFS GAA 3'PFS CGG (mixed)
RNA 1: B1 RNA 1
RNA 2: B1 RNA 2 with C28A, U29A, U53G
B7: target 2 MT 5'PFS GAA 3'PFS CGA (mixed)
RNA 1: B1 RNA 1
RNA 2: B1 RNA 2 with C28A, U29A, U53G, G54A
B8: target 2 MT 5'PFS GAA 3'PFS CGC (mixed)
RNA 1: B1 RNA 1
RNA 2: B1 RNA 2 with C28A, U29A, U53G, G54C
B9: target 2 MT 5'PFS AAU 3'PFS AAU (mixed)
RNA 1: B1 RNA 1
RNA 2: B1 RNA 2 with G27A, C28A, C52A, U53A, G54U
B10: target 2 MT 5'PFS UUA 3'PFS AAA (mixed)
RNA 1: B1 RNA 1
RNA 2: B1 RNA 2 with G27U, C28U, U29A, C52A, U53A, G54A
B11: target 2 MT 5'PFS UUA 3'PFS AAC (mixed)
RNA 1: B1 RNA 1
RNA 2: B1 RNA 2 with G27U, C28U, U29A, C52A, U53A, G54C
B12: target 2 MT 5'PFS GAA 3'PFS AUU (mixed)
RNA 1: B1 RNA 1
RNA 2: B1 RNA 2 with C28A, U29A, C52A, G54U
B13: target 2 MT 5'PFS AGG 3'PFS AAA (mixed)
RNA 1: B1 RNA 1
RNA 2: B1 RNA 2 with G27A, C28G, U29G, C52A, U53A, G54A
B14: target 1 U11G,A16U (mixed)
RNA 1: B3 RNA 1
RNA 2: B3 RNA 2 with A36U, U41G, G45C, A49U
B15: target 2 MT 5'PFS UUA 3'PFS AAG (mixed)
RNA 1: B1 RNA 1
RNA 2: B1 RNA 2 with G27U, C28U, U29A, C52A, U53A
B16: target 2 MT 5'PFS UAU 3'PFS UCU (mixed)
RNA 1: B1 RNA 1
RNA 2: B1 RNA 2 with G27U, C28A, C52U, U53C, G54U
B17: target 2 MT 5'PFS AUG 3'PFS CGC (mixed)
RNA 1: B1 RNA 1
RNA 2: B1 RNA 2 with G27A, C28U, U29G, U53G, G54C
B18: target 2 MT 5'PFS CUU 3'PFS CCC (mixed)
RNA 1: B1 RNA 1
RNA 2: B1 RNA 2 with G27C, C28U, U53C, G54C
B19: target 2 MT 5'PFS CUU 3'PFS CCA (mixed)
RNA 1: B1 RNA 1
RNA 2: B1 RNA 2 with G27C, C28U, U53C, G54A
B20: target 2 MT 5'PFS CUU 3'PFS CCG (mixed)
RNA 1: B1 RNA 1
RNA 2: B1 RNA 2 with G27C, C28U, U53C
B21: target 2 MT 5'PFS UUA 3'PFS AAU (mixed)
RNA 1: B1 RNA 1
RNA 2: B1 RNA 2 with G27U, C28U, U29A, C52A, U53A, G54U
B22: target 2 MT 5'PFS GCU 3'PFS CUA (mixed)
RNA 1: B1 RNA 1
RNA 2: B1 RNA 2 with G54A
B23: target 2 MT 5'PFS UUC 3'PFS CCC (mixed)
RNA 1: B1 RNA 1
RNA 2: B1 RNA 2 with G27U, C28U, U29C, U53C, G54C
B24: target 2 MT 5'PFS AAG 3'PFS AUC (mixed)
RNA 1: B1 RNA 1
RNA 2: B1 RNA 2 with G27A, C28A, U29G, C52A, G54C
B25: target 1 insU 3' of 9,insG 3' of 8 (mixed)
RNA 1: B3 RNA 1
RNA 2: GGGAAUGGAUCCACAUCUACGAAUUCGUACCAUAGAGAGGUUAUUGCCGCUCACCGAGAUCGGAAGAGCACACGU
B26: target 2 MT 5'PFS AAG 3'PFS AUU (mixed)
RNA 1: B1 RNA 1
RNA 2: B1 RNA 2 with G27A, C28A, U29G, C52A, G54U
B27: target 2 MT 5'PFS UCA 3'PFS UGU (mixed)
RNA 1: B1 RNA 1
RNA 2: B1 RNA 2 with G27U, U29A, C52U, U53G, G54U
B28: target 2 MT 5'PFS UGA 3'PFS AGC (mixed)
RNA 1: B1 RNA 1
RNA 2: B1 RNA 2 with G27U, C28G, U29A, C52A, U53G, G54C
B29: target 2 MT 5'PFS UGA 3'PFS ACU (mixed)
RNA 1: B1 RNA 1
RNA 2: B1 RNA 2 with G27U, C28G, U29A, C52A, U53C, G54U
B30: target 2 MT 5'PFS UGA 3'PFS ACA (mixed)
RNA 1: B1 RNA 1
RNA 2: B1 RNA 2 with G27U, C28G, U29A, C52A, U53C, G54A
B31: target 2 MT 5'PFS UGA 3'PFS ACC (mixed)
RNA 1: B1 RNA 1
RNA 2: B1 RNA 2 with G27U, C28G, U29A, C52A, U53C, G54C
B32: target 2 MT 5'PFS UGA 3'PFS ACG (mixed)
RNA 1: B1 RNA 1
RNA 2: B1 RNA 2 with G27U, C28G, U29A, C52A, U53C
B33: target 2 MT 5'PFS CGG 3'PFS AUU (mixed)
RNA 1: B1 RNA 1
RNA 2: B1 RNA 2 with G27C, C28G, U29G, C52A, G54U

target: T1, EsCas13d, nuclease-dead; test: crRNA (strand 1, pre-loaded); Mg2+; 40 mM Tris-HCl pH 7.5, 150 mM NaCl, 6 mM MgCl2, 1 mM DTT, 0.1% Tween-20, 0.2 mg/ml BSA; 25 C; 10 min per concentration, then washed; settings: tags: His6-TwinStrep-SUMO cleaved; N-terminal SNAP kept (SNAP-Surface 488); label: 3' end held by stalled T7 RNA polymerase

Point of comparison: B26, Kd 4.1 ± 0.5 nM. Against it:
- B1 — 7.3-fold higher, 30 ± 11 nM
- B2 — within 1.5-fold, 5.5 ± 0.9 nM
- B3 — 1.6-fold higher, 6.64 ± 0.29 nM
- B4 — within error, 3.2 ± 0.5 nM
- B5 — within error, 5.2 ± 0.8 nM
- B6 — 2.3-fold higher, 9.6 ± 1.5 nM
- B7 — 2.2-fold higher, 9.2 ± 1.7 nM
- B8 — 1.8-fold higher, 7.4 ± 0.5 nM
- B9 — the same, 4.1 ± 0.6 nM
- B10 — 3.6-fold higher, 14.6 ± 2.7 nM
- B11 — 4.6-fold higher, 18.7 ± 3.1 nM
- B12 — 1.8-fold higher, 7.3 ± 1.1 nM
- B13 — within error, 4.3 ± 0.9 nM
- B14 — 20-fold higher, 82 ± 12 nM
- B15 — 4.3-fold higher, 17.5 ± 1.8 nM
- B16 — 20-fold higher, 81 ± 23 nM
- B17 — 2-fold higher, 8.1 ± 0.8 nM
- B18 — 4.4-fold higher, 18 ± 9 nM
- B19 — 2.2-fold higher, 8.9 ± 1.1 nM
- B20 — within 1.5-fold, 6 ± 0.4 nM
- B21 — 4.4-fold higher, 18 ± 5 nM
- B22 — 4.1-fold higher, 17 ± 5 nM
- B23 — 7.1-fold higher, ~29 nM
- B24 — within error, 5.2 ± 0.9 nM
- B25 — 2-fold higher, 8.3 ± 0.5 nM
- B27 — 1.9-fold higher, 7.8 ± 1.1 nM
- B28 — within 1.5-fold, 6 ± 0.9 nM
- B29 — 3.8-fold higher, 15.6 ± 3.5 nM
- B30 — 2.2-fold higher, 9.1 ± 1 nM
- B31 — 3.9-fold higher, 16 ± 4 nM
- B32 — 2.8-fold higher, 11.6 ± 1.9 nM
- B33 — within error, 4.01 ± 0.28 nM

— publication PMC10786891, “Massively parallel profiling of RNA-targeting CRISPR-Cas13d”
